Here are results for one molecule from patent publication US20190203279A1 (NAVINCI DIAGNOSTICS, published 2019).

The assay has as its target T1, β-catenin (UniProt P35222 2-781).
T1 construct: Endogenous protein in A549 cells; also called beta-catenin
T1 sequence (looked up): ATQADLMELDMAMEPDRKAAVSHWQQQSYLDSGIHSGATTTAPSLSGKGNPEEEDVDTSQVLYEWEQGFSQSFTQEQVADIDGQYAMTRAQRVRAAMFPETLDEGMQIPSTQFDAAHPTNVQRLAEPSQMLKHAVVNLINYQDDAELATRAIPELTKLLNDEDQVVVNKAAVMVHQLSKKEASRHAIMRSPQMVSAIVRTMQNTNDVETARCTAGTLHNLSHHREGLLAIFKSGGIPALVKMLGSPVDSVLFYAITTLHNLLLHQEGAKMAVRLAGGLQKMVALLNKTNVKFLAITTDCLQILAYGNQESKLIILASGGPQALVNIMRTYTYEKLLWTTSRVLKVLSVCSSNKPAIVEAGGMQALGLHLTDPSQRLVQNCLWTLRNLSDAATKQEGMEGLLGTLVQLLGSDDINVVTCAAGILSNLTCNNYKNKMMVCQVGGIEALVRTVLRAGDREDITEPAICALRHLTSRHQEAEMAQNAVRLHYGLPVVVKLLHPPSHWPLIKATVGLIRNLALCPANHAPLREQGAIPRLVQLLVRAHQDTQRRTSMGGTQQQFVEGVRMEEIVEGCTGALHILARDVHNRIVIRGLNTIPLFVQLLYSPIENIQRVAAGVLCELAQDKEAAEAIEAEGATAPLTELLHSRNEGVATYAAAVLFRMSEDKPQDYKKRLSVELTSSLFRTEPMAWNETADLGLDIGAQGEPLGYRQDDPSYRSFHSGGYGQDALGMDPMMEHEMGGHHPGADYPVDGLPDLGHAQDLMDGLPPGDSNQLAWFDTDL
Kind of assay: in situ proximity-based RCA assay on fixed A549 cells with anti-E-cadherin and anti-β-catenin primary antibodies and oligonucleotide-conjugated secondary antibodies. The procedure:
A proximity-based detection assay was performed to detect a protein-protein complex in situ. Frozen A549 cells fixed on a microscopy slide were thawed and incubated with PBS+0.2% Triton X-100 for 5 minutes to permeabilise the cell membranes. Slides were incubated with 30 μl Olink blocking buffer for 60 minutes at 37° C. in a humidity chamber. Primary antibodies were diluted in Olink Antibody diluent (mouse IgG anti E-cadherin 1:100, rabbit IgG anti β-catenin 1:200). Blocking buffer was removed and 15 μl of each antibody solution was added and incubated overnight at 4° C. Slides were washed, and incubated with 30 μl 20 nM secondary antibodies conjugated to oligonucleotides (nucleic acid probe and activator molecule) for 60 minutes at 37° C. in a humidity chamber. Following incubation, slides were washed and incubated with 30 μl RCA mix (Phi29 buffer, BSA, PolyA, dNTPs, UNG, Hoechst, Texas Red labelled detection oligonucleotide and Phi29 polymerase) for 100 minutes at 37° C. in a humidity chamber. Slides were washed at room temperature and allowed to try, before being contacted with SlowFade mounting media and a coverslip applied and incubated for 15 minutes in the dark. All samples were analysed at the same magnification and exposure time (FIG. 18). […]

B1: E-cadherin (other, UniProt P12830 155-882, looked up)
chain: DWVIPPISCPENEKGPFPKNLVQIKSNKDKEGKVFYSITGQGADTPPVGVFIIERETGWLKVTEPLDRERIATYTLFSHAVSSNGNAVEDPMEILITVTDQNDNKPEFTQEVFKGSVMEGALPGTSVMEVTATDADDDVNTYNAAIAYTILSQDPELPDKNMFTINRNTGVISVVTTGLDRESFPTYTLVVQAADLQGEGLSTTATAVITVTDTNDNPPIFNPTTYKGQVPENEANVVITTLKVTDADAPNTPAWEAVYTILNDDGGQFVVTTNPVNNDGILKTAKGLDFEAKQQYILHVAVTNVVPFEVSLTTSTATVTVDVLDVNEAPIFVPPEKRVEVSEDFGVGQEITSYTAQEPDTFMEQKITYRIWRDTANWLEINPDTGAISTRAELDREDFEHVKNSTYTALIIATDNGSPVATGTGTLLLILSDVNDNAPIPEPRTIFFCERNPKPQVINIIDADLPPNTSPFTAELTHGASANWTIQYNDPTQESIILKPKMALEVGDYKINLKLMDNQNKDQVTTLEVSVCDCEGAAGVCRKAQPVEAGLQIPAILGILGGILALLILILLLLLFLRRRAVVKEPLLPPEDDTRDNVYYYDEEGGGEEDQDFDLSQLHRGLDARPEVTRNDVAPTLMSVPRYLPRPANPDEIGNFIDENLKAADTDPTAPPYDSLLVFDYEGSGSEAASLSSLNSSESDKDQDYDYLNEWGNRFKKLADMYGGGEDD
notes: whole, on cells; Endogenous protein in A549 cells
With B1, the binding result is on record as “binds”.
